Assay results from patent US20230093708A1, “PROTEIN NANOPARTICLE DESIGN AND APPLICATION” (Duke University, priority 2020, published 2023).

Columns and labels:
[1] = Cryo-TEM micelle core size, inter-core spacing and aspect ratio; type: physicochemical; settings: Table 6, mean ± standard deviation; for Spacing (nm): inter-core spacing
Protocol: Using the data from FIG. 18, particularly the longest straight line of an individual particle and a corresponding perpendicular measurement were made to describe the aspect ratio of particles observed.
Cryo-TEM experiments were performed at Duke University's Shared Materials Instrumentation Facility (Durham, N.C.). Lacey holey carbon grids (Ted Pella, Redding, Calif.) were glow discharged in a PELCO EasiGlow Cleaning System (Ted Pella, Redding, Calif.). A 3 μL drop (10 μM RLPn-ELP80) was deposited onto the grid, blotted for 3 s with an offset of −3 mm, and vitrified in liquid ethane using the Vitrobot Mark III (FEI, Eindhoven, Netherlands). Prior to vitrification, the sample chamber was maintained at 15° C. and 100% relative humidity to prevent sample evaporation. Grids were transferred to a Gatan 626 cryoholder (Gatan, Pleasanton, Calif.) and imaged with a FEI Tecnai G2 Twin TEM (FEI, Eindhoven, Netherlands), operating at 80 keV. Feature sizes and spacing distances were measured in ImageJ by manual measurement of at least 25 particles.

[2] = Static and dynamic light scattering (SLS/DLS) of block co-polypeptides; type: physicochemical; settings: for Nagg / Rg(nm) / Rh (nm) / ρ: Table 5; for Nagg / Rg(nm) / Rh (nm): 10 μM in PBS, 15 °C; for ρ: shape factor Rg/Rh
Protocol: Key parameters of interest are the hydrophilicity of the corona-forming block, the hydrophilicity of the core block, the overall length of the co-polypeptide and the ratio of the two blocks. Parameters of evaluation are the size, morphology, stability, and thermoresponsive behavior. All measurements were made in 140 mM NaCl, 10 mM phosphate buffer, 3 mM KCl, pH 7.4 unless otherwise specified. Size was evaluated by the hydrodynamic radios (Rh) and radius of gyration (Rg) by dynamic light scattering (DLS) and static light scattering (SLS) respectively. Rg and Rh can be combined to yield the shape factor ρ=Rg/Rh, which provides a rough indication of the morphology of the scatterer. […] For an elongated scatterer, the shape factor depends upon the aspect ratio. A combination of temperature dependent turbidity and DLS was utilized to determine the phase behavior of the block co-polypeptides. Cryogenic transmission electron microscopy (Cryo-TEM) was utilized to evaluate the morphology and provide crucial insight into the hydration of the core/corona chains. Stability of the assembled nanostructure was determined by a shift in the I1/I3 fluorescent bands of pyrene as described previously.
Static and dynamic light scattering measurements (SLS/DLS) were performed using an ALV/CGS-3 goniometer system (Langen, Germany). Samples for the ALV/CGS-3 goniometer system were prepared at a concentration of 10 μM in PBS and filtered through 0.45 μm Millex-GV filters into a 10 mm disposable borosilicate glass tube (Fischer). Simultaneous SLS and DLS measurements were obtained at 15° C. of the ELP for angles between 30°-150° at 5° increments, with each angle consisting of 3 runs for 15 s. SLS experiments were only conducted for self-assembling block co-polypeptides, since the molecular weight of a single block co-polypeptide chain is already known, and the Rg of a single chain is likely near or below the detection limit of the SLS instrument. The differential refractive index (dn/dc) was determined by measuring the refractive index at different concentrations using an Abbemat 500 refractometer (Anton Paar, Graz, Austria). DLS data were analyzed by fitting the autocorrelation function with a cumulant fit, using the built-in ALV software. Hydrodynamic radius (Rh) was plotted against angle and extrapolated to zero. SLS data were analyzed by partial Zimm plots using ALVSTAT software in order to determine the Rg and molecular weight (MW).

Molecule	Spacing (nm) [1] [nm]	Core radius (nm) [1] [nm]	Nagg [2]	Rg(nm) [2] [nm]	Rh (nm) [2] [nm]	ρ [2]	shape factor / form factor (Rg/Rh) [2]
RLP80-ELPS80: RLP-ELP block co-polypeptide with Ser guest residue in the corona (protein) QYPSDGRGQYPSDGRGQYPSDGRGQYPSDGRGQYPSDGRGQYPSDGRGQYPSDGRGQYPSDGRGQYPSDGRGQYPSDGRGQYPSDGRGQYPSDGRGQYPSDGRGQYPSDGRGQYPSDGRGQYPSDGRGQYPSDGRGQYPSDGRGQYPSDGRGQYPSDGRGQYPSDGRGQYPSDGRGQYPSDGRGQYPSDGRGQYPSDGRGQYPSDGRGQYPSDGRGQYPSDGRGQYPSDGRGQYPSDGRGQYPSDGRGQYPSDGRGQYPSDGRGQYPSDGRGQYPSDGRGQYPSDGRGQYPSDGRGQYPSDGRGQYPSDGRGQYPSDGRGQYPSDGRGQYPSDGRGQYPSDGRGQYPSDGRGQYPSDGRGQYPSDGRGQYPSDGRGQYPSDGRGQYPSDGRGQYPSDGRGQYPSDGRGQYPSDGRGQYPSDGRGQYPSDGRGQYPSDGRGQYPSDGRGQYPSDGRGQYPSDGRGQYPSDGRGQYPSDGRGQYPSDGRGQYPSDGRGQYPSDGRGQYPSDGRGQYPSDGRGQYPSDGRGQYPSDGRGQYPSDGRGQYPSDGRGQYPSDGRGQYPSDGRGQYPSDGRGQYPSDGRGQYPSDGRGQYPSDGRGQYPSDGRGQYPSDGRGQYPSDGRGQYPSDGRGQYPSDGRGGSGVPGSGVPGSGVPGSGVPGSGVPGSGVPGSGVPGSGVPGSGVPGSGVPGSGVPGSGVPGSGVPGSGVPGSGVPGSGVPGSGVPGSGVPGSGVPGSGVPGSGVPGSGVPGSGVPGSGVPGSGVPGSGVPGSGVPGSGVPGSGVPGSGVPGSGVPGSGVPGSGVPGSGVPGSGVPGSGVPGSGVPGSGVPGSGVPGSGVPGSGVPGSGVPGSGVPGSGVPGSGVPGSGVPGSGVPGSGVPGSGVPGSGVPGSGVPGSGVPGSGVPGSGVPGSGVPGSGVPGSGVPGSGVPGSGVPGSGVPGSGVPGSGVPGSGVPGSGVPGSGVPGSGVPGSGVPGSGVPGSGVPGSGVPGSGVPGSGVPGSGVPGSGVPGSGVPGSGVPGSGVPGSGVPGSGVPGSGVP	27.9 ± 4.0	14.6 ± 2.2	392	36.0	49.4	0.73	–
RLP40-ELPV80: RLP-ELP block co-polypeptide with Val guest residue in the corona (protein) QYPSDGRGQYPSDGRGQYPSDGRGQYPSDGRGQYPSDGRGQYPSDGRGQYPSDGRGQYPSDGRGQYPSDGRGQYPSDGRGQYPSDGRGQYPSDGRGQYPSDGRGQYPSDGRGQYPSDGRGQYPSDGRGQYPSDGRGQYPSDGRGQYPSDGRGQYPSDGRGQYPSDGRGQYPSDGRGQYPSDGRGQYPSDGRGQYPSDGRGQYPSDGRGQYPSDGRGQYPSDGRGQYPSDGRGQYPSDGRGQYPSDGRGQYPSDGRGQYPSDGRGQYPSDGRGQYPSDGRGQYPSDGRGQYPSDGRGQYPSDGRGQYPSDGRGQYPSDGRGGVGVPGVGVPGVGVPGVGVPGVGVPGVGVPGVGVPGVGVPGVGVPGVGVPGVGVPGVGVPGVGVPGVGVPGVGVPGVGVPGVGVPGVGVPGVGVPGVGVPGVGVPGVGVPGVGVPGVGVPGVGVPGVGVPGVGVPGVGVPGVGVPGVGVPGVGVPGVGVPGVGVPGVGVPGVGVPGVGVPGVGVPGVGVPGVGVPGVGVPGVGVPGVGVPGVGVPGVGVPGVGVPGVGVPGVGVPGVGVPGVGVPGVGVPGVGVPGVGVPGVGVPGVGVPGVGVPGVGVPGVGVPGVGVPGVGVPGVGVPGVGVPGVGVPGVGVPGVGVPGVGVPGVGVPGVGVPGVGVPGVGVPGVGVPGVGVPGVGVPGVGVPGVGVPGVGVPGVGVPGVGVPGVGVPGVGVPGVGVP	19.4 ± 4.4	14.5 ± 3.6	213	33.1	31.7	1.04	> 1
RLP40-ELPS80: RLP-ELP block co-polypeptide with Ser guest residue in the corona (protein) QYPSDGRGQYPSDGRGQYPSDGRGQYPSDGRGQYPSDGRGQYPSDGRGQYPSDGRGQYPSDGRGQYPSDGRGQYPSDGRGQYPSDGRGQYPSDGRGQYPSDGRGQYPSDGRGQYPSDGRGQYPSDGRGQYPSDGRGQYPSDGRGQYPSDGRGQYPSDGRGQYPSDGRGQYPSDGRGQYPSDGRGQYPSDGRGQYPSDGRGQYPSDGRGQYPSDGRGQYPSDGRGQYPSDGRGQYPSDGRGQYPSDGRGQYPSDGRGQYPSDGRGQYPSDGRGQYPSDGRGQYPSDGRGQYPSDGRGQYPSDGRGQYPSDGRGQYPSDGRGGSGVPGSGVPGSGVPGSGVPGSGVPGSGVPGSGVPGSGVPGSGVPGSGVPGSGVPGSGVPGSGVPGSGVPGSGVPGSGVPGSGVPGSGVPGSGVPGSGVPGSGVPGSGVPGSGVPGSGVPGSGVPGSGVPGSGVPGSGVPGSGVPGSGVPGSGVPGSGVPGSGVPGSGVPGSGVPGSGVPGSGVPGSGVPGSGVPGSGVPGSGVPGSGVPGSGVPGSGVPGSGVPGSGVPGSGVPGSGVPGSGVPGSGVPGSGVPGSGVPGSGVPGSGVPGSGVPGSGVPGSGVPGSGVPGSGVPGSGVPGSGVPGSGVPGSGVPGSGVPGSGVPGSGVPGSGVPGSGVPGSGVPGSGVPGSGVPGSGVPGSGVPGSGVPGSGVPGSGVPGSGVPGSGVPGSGVPGSGVP	20.0 ± 2.6	13.1 ± 2.7	80	27.2	33.0	0.82	–
RLP80-ELPV80: RLP-ELP block co-polypeptide with Val guest residue in the corona (protein) QYPSDGRGQYPSDGRGQYPSDGRGQYPSDGRGQYPSDGRGQYPSDGRGQYPSDGRGQYPSDGRGQYPSDGRGQYPSDGRGQYPSDGRGQYPSDGRGQYPSDGRGQYPSDGRGQYPSDGRGQYPSDGRGQYPSDGRGQYPSDGRGQYPSDGRGQYPSDGRGQYPSDGRGQYPSDGRGQYPSDGRGQYPSDGRGQYPSDGRGQYPSDGRGQYPSDGRGQYPSDGRGQYPSDGRGQYPSDGRGQYPSDGRGQYPSDGRGQYPSDGRGQYPSDGRGQYPSDGRGQYPSDGRGQYPSDGRGQYPSDGRGQYPSDGRGQYPSDGRGQYPSDGRGQYPSDGRGQYPSDGRGQYPSDGRGQYPSDGRGQYPSDGRGQYPSDGRGQYPSDGRGQYPSDGRGQYPSDGRGQYPSDGRGQYPSDGRGQYPSDGRGQYPSDGRGQYPSDGRGQYPSDGRGQYPSDGRGQYPSDGRGQYPSDGRGQYPSDGRGQYPSDGRGQYPSDGRGQYPSDGRGQYPSDGRGQYPSDGRGQYPSDGRGQYPSDGRGQYPSDGRGQYPSDGRGQYPSDGRGQYPSDGRGQYPSDGRGQYPSDGRGQYPSDGRGQYPSDGRGQYPSDGRGQYPSDGRGQYPSDGRGQYPSDGRGQYPSDGRGGVGVPGVGVPGVGVPGVGVPGVGVPGVGVPGVGVPGVGVPGVGVPGVGVPGVGVPGVGVPGVGVPGVGVPGVGVPGVGVPGVGVPGVGVPGVGVPGVGVPGVGVPGVGVPGVGVPGVGVPGVGVPGVGVPGVGVPGVGVPGVGVPGVGVPGVGVPGVGVPGVGVPGVGVPGVGVPGVGVPGVGVPGVGVPGVGVPGVGVPGVGVPGVGVPGVGVPGVGVPGVGVPGVGVPGVGVPGVGVPGVGVPGVGVPGVGVPGVGVPGVGVPGVGVPGVGVPGVGVPGVGVPGVGVPGVGVPGVGVPGVGVPGVGVPGVGVPGVGVPGVGVPGVGVPGVGVPGVGVPGVGVPGVGVPGVGVPGVGVPGVGVPGVGVPGVGVPGVGVPGVGVPGVGVPGVGVPGVGVP	29.6 ± 3.8	14.2 ± 2.4	693	94.4	71.0	1.31	–
